Experimental data as given in the Human Domainome abundance scans (Beltran et al. 2025).
± gives the uncertainty stated by the source.

B1: KAT8 regulatory NSL complex subunit 2, residues 28 to 91; numbered along this chain, Q9H9L4 (parent)
chain: CAFTHRPCSHPRLEGQEFCIKHILEDKNAPFKQCSYISTKNGKRCPNAAPKPEKKDGVSFCAEH

Variants of: B1
Assay: abundance fitness (aPCA) (normalised: wild type 0, dead -1); higher = more abundant; growth selection in yeast, the domain comes from the species named
Conditions: Homo sapiens

| Variant | abundance fitness |
| --- | --- |
| CPFTHRPCSHPRLEGQEFCIKHILEDKNAPFKQCSYISTKNGKRCPNAAPKPEKKDGVSFCAEH [A2P] | -0.421 ± 0.084 |
| CHFTHRPCSHPRLEGQEFCIKHILEDKNAPFKQCSYISTKNGKRCPNAAPKPEKKDGVSFCAEH [A2H] | -0.231 ± 0.1 |
| CKFTHRPCSHPRLEGQEFCIKHILEDKNAPFKQCSYISTKNGKRCPNAAPKPEKKDGVSFCAEH [A2K] | -0.153 ± 0.14 |
| CCFTHRPCSHPRLEGQEFCIKHILEDKNAPFKQCSYISTKNGKRCPNAAPKPEKKDGVSFCAEH [A2C] | -0.08 ± 0.093 |
| CGFTHRPCSHPRLEGQEFCIKHILEDKNAPFKQCSYISTKNGKRCPNAAPKPEKKDGVSFCAEH [A2G] | -0.101 ± 0.055 |
| CLFTHRPCSHPRLEGQEFCIKHILEDKNAPFKQCSYISTKNGKRCPNAAPKPEKKDGVSFCAEH [A2L] | -0.152 ± 0.069 |
| CRFTHRPCSHPRLEGQEFCIKHILEDKNAPFKQCSYISTKNGKRCPNAAPKPEKKDGVSFCAEH [A2R] | -0.138 ± 0.076 |
| CEFTHRPCSHPRLEGQEFCIKHILEDKNAPFKQCSYISTKNGKRCPNAAPKPEKKDGVSFCAEH [A2E] | -0.522 ± 0.1 |
| CTFTHRPCSHPRLEGQEFCIKHILEDKNAPFKQCSYISTKNGKRCPNAAPKPEKKDGVSFCAEH [A2T] | -0.103 ± 0.056 |
| CWFTHRPCSHPRLEGQEFCIKHILEDKNAPFKQCSYISTKNGKRCPNAAPKPEKKDGVSFCAEH [A2W] | -0.541 ± 0.059 |
| CVFTHRPCSHPRLEGQEFCIKHILEDKNAPFKQCSYISTKNGKRCPNAAPKPEKKDGVSFCAEH [A2V] | -0.235 ± 0.051 |
| CIFTHRPCSHPRLEGQEFCIKHILEDKNAPFKQCSYISTKNGKRCPNAAPKPEKKDGVSFCAEH [A2I] | -0.198 ± 0.13 |
| CQFTHRPCSHPRLEGQEFCIKHILEDKNAPFKQCSYISTKNGKRCPNAAPKPEKKDGVSFCAEH [A2Q] | -0.186 ± 0.16 |
| CDFTHRPCSHPRLEGQEFCIKHILEDKNAPFKQCSYISTKNGKRCPNAAPKPEKKDGVSFCAEH [A2D] | -0.388 ± 0.13 |
| CFFTHRPCSHPRLEGQEFCIKHILEDKNAPFKQCSYISTKNGKRCPNAAPKPEKKDGVSFCAEH [A2F] | -0.513 ± 0.14 |
| CMFTHRPCSHPRLEGQEFCIKHILEDKNAPFKQCSYISTKNGKRCPNAAPKPEKKDGVSFCAEH [A2M] | -0.014 ± 0.082 |
| CNFTHRPCSHPRLEGQEFCIKHILEDKNAPFKQCSYISTKNGKRCPNAAPKPEKKDGVSFCAEH [A2N] | 0.023 ± 0.17 |
| CSFTHRPCSHPRLEGQEFCIKHILEDKNAPFKQCSYISTKNGKRCPNAAPKPEKKDGVSFCAEH [A2S] | -0.238 ± 0.088 |
| CAITHRPCSHPRLEGQEFCIKHILEDKNAPFKQCSYISTKNGKRCPNAAPKPEKKDGVSFCAEH [F3I] | 0.033 ± 0.13 |
| CADTHRPCSHPRLEGQEFCIKHILEDKNAPFKQCSYISTKNGKRCPNAAPKPEKKDGVSFCAEH [F3D] | -0.255 ± 0.075 |
| CAYTHRPCSHPRLEGQEFCIKHILEDKNAPFKQCSYISTKNGKRCPNAAPKPEKKDGVSFCAEH [F3Y] | -0.151 ± 0.057 |

| Variant | abundance fitness |
| --- | --- |
| CAATHRPCSHPRLEGQEFCIKHILEDKNAPFKQCSYISTKNGKRCPNAAPKPEKKDGVSFCAEH [F3A] | -0.318 ± 0.087 |
| CAGTHRPCSHPRLEGQEFCIKHILEDKNAPFKQCSYISTKNGKRCPNAAPKPEKKDGVSFCAEH [F3G] | -0.154 ± 0.064 |
| CANTHRPCSHPRLEGQEFCIKHILEDKNAPFKQCSYISTKNGKRCPNAAPKPEKKDGVSFCAEH [F3N] | -0.312 ± 0.1 |
| CAWTHRPCSHPRLEGQEFCIKHILEDKNAPFKQCSYISTKNGKRCPNAAPKPEKKDGVSFCAEH [F3W] | -0.161 ± 0.061 |
| CAHTHRPCSHPRLEGQEFCIKHILEDKNAPFKQCSYISTKNGKRCPNAAPKPEKKDGVSFCAEH [F3H] | -0.026 ± 0.086 |
| CAKTHRPCSHPRLEGQEFCIKHILEDKNAPFKQCSYISTKNGKRCPNAAPKPEKKDGVSFCAEH [F3K] | -0.287 ± 0.15 |
| CALTHRPCSHPRLEGQEFCIKHILEDKNAPFKQCSYISTKNGKRCPNAAPKPEKKDGVSFCAEH [F3L] | -0.332 ± 0.049 |
| CARTHRPCSHPRLEGQEFCIKHILEDKNAPFKQCSYISTKNGKRCPNAAPKPEKKDGVSFCAEH [F3R] | -0.174 ± 0.044 |
| CAETHRPCSHPRLEGQEFCIKHILEDKNAPFKQCSYISTKNGKRCPNAAPKPEKKDGVSFCAEH [F3E] | -0.285 ± 0.085 |
| CACTHRPCSHPRLEGQEFCIKHILEDKNAPFKQCSYISTKNGKRCPNAAPKPEKKDGVSFCAEH [F3C] | -0.14 ± 0.077 |
| CAQTHRPCSHPRLEGQEFCIKHILEDKNAPFKQCSYISTKNGKRCPNAAPKPEKKDGVSFCAEH [F3Q] | -0.28 ± 0.055 |
| CAPTHRPCSHPRLEGQEFCIKHILEDKNAPFKQCSYISTKNGKRCPNAAPKPEKKDGVSFCAEH [F3P] | -0.639 ± 0.074 |
| CAMTHRPCSHPRLEGQEFCIKHILEDKNAPFKQCSYISTKNGKRCPNAAPKPEKKDGVSFCAEH [F3M] | -0.172 ± 0.085 |
| CATTHRPCSHPRLEGQEFCIKHILEDKNAPFKQCSYISTKNGKRCPNAAPKPEKKDGVSFCAEH [F3T] | -0.083 ± 0.068 |
| CAFTHIPCSHPRLEGQEFCIKHILEDKNAPFKQCSYISTKNGKRCPNAAPKPEKKDGVSFCAEH [R6I] | -0.034 ± 0.079 |
| CAFTHFPCSHPRLEGQEFCIKHILEDKNAPFKQCSYISTKNGKRCPNAAPKPEKKDGVSFCAEH [R6F] | -0.016 ± 0.076 |
| CAFTHCPCSHPRLEGQEFCIKHILEDKNAPFKQCSYISTKNGKRCPNAAPKPEKKDGVSFCAEH [R6C] | -0.032 ± 0.066 |
| CAFTHAPCSHPRLEGQEFCIKHILEDKNAPFKQCSYISTKNGKRCPNAAPKPEKKDGVSFCAEH [R6A] | -0.167 ± 0.073 |
| CAFTHGPCSHPRLEGQEFCIKHILEDKNAPFKQCSYISTKNGKRCPNAAPKPEKKDGVSFCAEH [R6G] | -0.068 ± 0.055 |
| CAFNHRPCSHPRLEGQEFCIKHILEDKNAPFKQCSYISTKNGKRCPNAAPKPEKKDGVSFCAEH [T4N] | -0.201 ± 0.3 |
| CAFCHRPCSHPRLEGQEFCIKHILEDKNAPFKQCSYISTKNGKRCPNAAPKPEKKDGVSFCAEH [T4C] | -0.102 ± 0.2 |
